Measured values: patent US20240116985A1 (published 2024)
Starred links: 1 amine or outer side, 2 acyl side, 3 side chain; linkers in the order of their positions; H or OH if unused. Positions of bridges follow the written chain, without caps; N, C: chain ends. Non-standard residues stand in square brackets, D forms with d. Primed or numbered codes have the meaning given here. PyrS2″ = (S)-3-amino-1-((pent-4-en-1-yloxy)carbonyl)pyrrolidine-3-carboxylic acid (stapling residue), C=CCCCOC(=O)N1CC[C@@](N[*:1])(C(=O)[*:2])C1; B5(18) = 2,2-bis(4-pentenyl)glycine (2-amino-2-(pent-4-en-1-yl)hept-6-enoic acid), stitching residue, C=CCCCC(CCCC=C)(N[*:1])C(=O)[*:2]; TfeGA = (S)-2-amino-3-((carboxymethyl)(2,2,2-trifluoroethyl)amino)propanoic acid, O=C([C@H](CN(CC(=O)[*:3])CC(F)(F)F)N[*:1])[*:2]; B5(3) = 2,2-bis(4-pentenyl)glycine (stitching residue), C=CCCCC(CCCC=C)(N[*:1])C(=O)[*:2]; 2F3MeF = Cc1cccc(C[C@H](N[*:1])C(=O)[*:2])c1F; Phe(2-CF3) = N[C@@H](Cc1ccccc1C(F)(F)F)C(=O)O; Phe(3-Cl) = N[C@@H](Cc1cccc(Cl)c1)C(=O)O; Phe(2-Cl) = N[C@@H](Cc1ccccc1Cl)C(=O)O; Bta = N[C@@H](Cc1csc2ccccc12)C(=O)O; αAllylPro = C=CC[C@@]1(C(=O)O)CCCN1; tBuAla = CC(C)(C)C[C@H](N)C(=O)O; S8 = C=CCCCCCC[C@](C)(N)C(=O)O; PyrS2(4) = not defined here; TfeGA″ = not defined here

B1: I-927 (peptide)
peptide: Ac-[αAllylPro]D[tBuAla][B5(3)]D[TfeGA″]AAFN[PyrS2(4)][2F3MeF][Bta]Q-NH2
modifications: staple 1-4, 4-11; reading uncertain; also: staple stereoisomer, earlier-eluting HPLC peak

These binders were tested against T1, B-cat-Halo (UniProt P35222 1-781) (assay: cell-based or functional assay).
T1 sequence (looked up): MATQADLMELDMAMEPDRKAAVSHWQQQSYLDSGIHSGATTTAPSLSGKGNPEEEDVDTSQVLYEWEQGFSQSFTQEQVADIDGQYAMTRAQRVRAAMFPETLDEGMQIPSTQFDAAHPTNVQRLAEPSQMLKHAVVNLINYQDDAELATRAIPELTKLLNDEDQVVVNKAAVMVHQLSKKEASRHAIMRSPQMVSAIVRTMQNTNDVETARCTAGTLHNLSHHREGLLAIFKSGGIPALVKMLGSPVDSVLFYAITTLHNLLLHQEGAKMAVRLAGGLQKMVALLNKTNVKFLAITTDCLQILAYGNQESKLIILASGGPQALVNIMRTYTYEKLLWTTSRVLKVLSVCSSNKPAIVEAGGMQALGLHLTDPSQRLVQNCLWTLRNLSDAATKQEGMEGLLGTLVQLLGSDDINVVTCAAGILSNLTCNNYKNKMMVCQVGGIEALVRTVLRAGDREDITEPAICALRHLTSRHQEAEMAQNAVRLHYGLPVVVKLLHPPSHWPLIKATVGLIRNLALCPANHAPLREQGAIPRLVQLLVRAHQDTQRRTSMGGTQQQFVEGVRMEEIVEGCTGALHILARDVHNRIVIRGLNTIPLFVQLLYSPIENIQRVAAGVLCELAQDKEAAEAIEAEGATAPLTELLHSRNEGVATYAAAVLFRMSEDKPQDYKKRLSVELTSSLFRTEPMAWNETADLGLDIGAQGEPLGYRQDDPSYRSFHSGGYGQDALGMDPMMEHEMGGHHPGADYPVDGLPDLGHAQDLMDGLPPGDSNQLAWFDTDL

Question: Which “NanoBRET Abs IC50” value does the source give for Ac-[αAllylPro]D[tBuAla][B5(18)]D[TfeGA]ALFN[PyrS2″][Phe(2-Cl)][Bta]Q-NH2 (staple 1-4, 4-11) [I-1002] here?
Answer: 29.8 µM

Question: Which “NanoBRET Abs IC50” value does the source give for Ac-[αAllylPro]D[tBuAla][B5(18)]D[TfeGA]AKFN[PyrS2″][Phe(2-Cl)][Bta]Q-NH2 (staple 1-4, 4-11) [I-1006] here?
Answer: > 20 µM

Question: How did the “NanoBRET Abs IC50” value turn out when Ac-[αAllylPro]D[tBuAla][B5(18)]D[TfeGA]ASFN[PyrS2″][Phe(2-Cl)][Bta]Q-NH2 (staple 1-4, 4-11) [I-1004] was run?
Answer: 10.6 µM

Question: For Ac-[αAllylPro]D[tBuAla][B5(18)]D[TfeGA]KAFN[PyrS2″][Phe(2-Cl)][Bta]Q-NH2 (staple 1-4, 4-11) [I-1011], which “NanoBRET Abs IC50” value is on record?
Answer: 20.8 µM

Question: Which “NanoBRET Abs IC50” value does the source give for Ac-[αAllylPro]D[tBuAla][B5(18)]D[TfeGA″]SAFN[PyrS2″][Phe(2-Cl)][Bta]Q-NH2 (staple 1-4, 4-11; reading uncertain) [I-1009] here?
Answer: 33.3 µM

Question: Ac-[αAllylPro]D[tBuAla][B5(18)]DNAAFT[PyrS2″][Phe(2-Cl)][Bta]Q-NH2 (staple 1-4, 4-11) [I-1014] was tested. Which “NanoBRET Abs IC50” value did it give?
Answer: 14.3 µM

Question: With Ac-[αAllylPro]D[tBuAla][B5(18)]DNAAFT[PyrS2″][Phe(2-Cl)][Bta]S-NH2 (staple 1-4, 4-11) [I-1016] as the binder, how does the “NanoBRET Abs IC50” value read?
Answer: 21.4 µM

Question: Ac-[αAllylPro]D[tBuAla][B5(18)]DDAAFT[PyrS2″][Phe(2-Cl)][Bta]Q-NH2 (staple 1-4, 4-11) [I-1013] was tested. Which “NanoBRET Abs IC50” value did it give?
Answer: 12.4 µM

Question: With Ac-[αAllylPro]D[tBuAla][B5(18)]D[TfeGA]IAFN[PyrS2″][Phe(2-Cl)][Bta]Q-NH2 (staple 1-4, 4-11) [I-1010] as the binder, how does the “NanoBRET Abs IC50” value read?
Answer: 13.3 µM

Question: How did the “NanoBRET Abs IC50” value turn out when Ac-[αAllylPro]D[tBuAla][B5(18)]D[TfeGA]LAFN[PyrS2″][Phe(2-Cl)][Bta]Q-NH2 (staple 1-4, 4-11) [I-1007] was run?
Answer: 24.9 µM

The binders below were run against T2, B-cat-Halo (UniProt P35222 1-781, HaloTag NanoBRET 618 Ligand bound to the HaloTag in the assay) (assay: cell-based or functional assay).
T2 sequence (looked up): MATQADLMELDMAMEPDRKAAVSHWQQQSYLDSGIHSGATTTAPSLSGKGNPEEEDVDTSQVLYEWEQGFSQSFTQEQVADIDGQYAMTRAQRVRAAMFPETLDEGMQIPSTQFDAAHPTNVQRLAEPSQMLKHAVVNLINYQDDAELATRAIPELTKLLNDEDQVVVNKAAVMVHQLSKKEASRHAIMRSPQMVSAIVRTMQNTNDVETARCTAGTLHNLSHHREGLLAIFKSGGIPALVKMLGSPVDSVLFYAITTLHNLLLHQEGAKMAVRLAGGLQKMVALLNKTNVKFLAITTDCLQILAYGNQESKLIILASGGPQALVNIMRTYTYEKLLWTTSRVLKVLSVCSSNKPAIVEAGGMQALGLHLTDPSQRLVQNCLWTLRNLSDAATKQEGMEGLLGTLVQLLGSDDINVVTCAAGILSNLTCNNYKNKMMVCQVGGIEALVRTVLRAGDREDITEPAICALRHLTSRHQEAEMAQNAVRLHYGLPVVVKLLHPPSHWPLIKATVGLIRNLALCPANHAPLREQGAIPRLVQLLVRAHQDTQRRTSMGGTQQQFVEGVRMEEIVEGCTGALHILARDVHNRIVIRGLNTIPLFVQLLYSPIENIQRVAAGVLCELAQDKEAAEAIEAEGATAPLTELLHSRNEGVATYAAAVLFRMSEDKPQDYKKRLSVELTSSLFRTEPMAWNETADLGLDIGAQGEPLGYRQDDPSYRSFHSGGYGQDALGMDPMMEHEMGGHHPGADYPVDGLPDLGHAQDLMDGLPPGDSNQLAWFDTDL

Question: Which “NanoBRET Abs IC50” value does the source give for Ac-[αAllylPro]D[tBuAla][B5(3)]D[TfeGA]AAFN[PyrS2″][Phe(2-CF3)][Bta]Q-NH2 (staple 1-4, 4-11; not fully specified) [I-928] here?
Answer: 6.1 µM

Question: For Ac-[αAllylPro]D[tBuAla][B5(3)]D[TfeGA]AAFN[PyrS2″][Phe(3-Cl)][Bta]Q-NH2 (staple 1-4, 4-11; not fully specified) [I-925], which “NanoBRET Abs IC50” value is on record?
Answer: 20 µM

Question: For Ac-[αAllylPro]D[tBuAla][B5(3)]D[TfeGA]AAFN[S8][Phe(2-Cl)][Bta]Q-NH2 (staple 1-4, 4-11) [I-929], which “NanoBRET Abs IC50” value is on record?
Answer: 10.3 µM

Question: How did the “NanoBRET Abs IC50” value turn out when Ac-[αAllylPro]D[tBuAla][B5(3)]D[TfeGA]AAFN[PyrS2″][Phe(3-Cl)][Bta]Q-NH2 (staple 1-4, 4-11; not fully specified) [I-926] was run?
Answer: 29.9 µM

Question: With B1 as the binder, how does the “NanoBRET Abs IC50” value read?
Answer: 8.2 µM
